Patent US20240158510A1 (GOVERNING COUNCIL OF THE UNIVERSITY OF TORONTO, published 2024)
Changes are numbered by the printed parent chain. Like-named read-outs stand apart in the source and are kept apart here. Blank lines part the entries; values can stand above or below the binder they belong to.

How the values were obtained:
[1] = target: T1, integrin αvβ3 expressed on CHO cells (UniProt P06756 31-1048; P05106 27-788, limits assumed); test: flow cytometry titration on AvB3 CHO cells
T1 construct: whole, on cells
T1 sequence (P06756 31-1048 limits assumed, chain 1 of 2): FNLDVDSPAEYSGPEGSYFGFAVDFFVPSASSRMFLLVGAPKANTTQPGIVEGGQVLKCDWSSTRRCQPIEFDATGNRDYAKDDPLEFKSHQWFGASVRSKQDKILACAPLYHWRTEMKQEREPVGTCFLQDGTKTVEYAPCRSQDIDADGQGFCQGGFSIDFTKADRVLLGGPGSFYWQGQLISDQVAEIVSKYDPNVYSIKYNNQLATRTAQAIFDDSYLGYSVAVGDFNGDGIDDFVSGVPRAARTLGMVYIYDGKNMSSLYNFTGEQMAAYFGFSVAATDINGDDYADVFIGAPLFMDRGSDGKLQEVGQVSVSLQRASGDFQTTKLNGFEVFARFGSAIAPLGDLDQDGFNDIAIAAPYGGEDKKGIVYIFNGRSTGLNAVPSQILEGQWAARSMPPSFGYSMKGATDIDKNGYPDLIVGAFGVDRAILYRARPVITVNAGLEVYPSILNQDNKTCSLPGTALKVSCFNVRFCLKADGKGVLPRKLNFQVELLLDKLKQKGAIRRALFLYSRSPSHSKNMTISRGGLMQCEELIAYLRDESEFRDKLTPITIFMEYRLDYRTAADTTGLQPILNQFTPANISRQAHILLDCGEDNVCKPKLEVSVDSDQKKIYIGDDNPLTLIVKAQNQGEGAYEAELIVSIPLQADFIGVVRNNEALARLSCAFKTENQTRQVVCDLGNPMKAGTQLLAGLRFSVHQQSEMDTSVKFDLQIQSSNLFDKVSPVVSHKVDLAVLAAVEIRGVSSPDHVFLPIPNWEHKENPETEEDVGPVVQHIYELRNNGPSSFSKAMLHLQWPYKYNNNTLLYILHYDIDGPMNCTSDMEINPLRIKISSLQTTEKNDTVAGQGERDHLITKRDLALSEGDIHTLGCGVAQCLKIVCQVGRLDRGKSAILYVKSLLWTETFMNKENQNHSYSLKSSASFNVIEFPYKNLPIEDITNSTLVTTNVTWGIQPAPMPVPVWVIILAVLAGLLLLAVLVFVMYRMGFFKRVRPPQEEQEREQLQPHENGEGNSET
T1 sequence (P05106 27-788 limits assumed, chain 2 of 2): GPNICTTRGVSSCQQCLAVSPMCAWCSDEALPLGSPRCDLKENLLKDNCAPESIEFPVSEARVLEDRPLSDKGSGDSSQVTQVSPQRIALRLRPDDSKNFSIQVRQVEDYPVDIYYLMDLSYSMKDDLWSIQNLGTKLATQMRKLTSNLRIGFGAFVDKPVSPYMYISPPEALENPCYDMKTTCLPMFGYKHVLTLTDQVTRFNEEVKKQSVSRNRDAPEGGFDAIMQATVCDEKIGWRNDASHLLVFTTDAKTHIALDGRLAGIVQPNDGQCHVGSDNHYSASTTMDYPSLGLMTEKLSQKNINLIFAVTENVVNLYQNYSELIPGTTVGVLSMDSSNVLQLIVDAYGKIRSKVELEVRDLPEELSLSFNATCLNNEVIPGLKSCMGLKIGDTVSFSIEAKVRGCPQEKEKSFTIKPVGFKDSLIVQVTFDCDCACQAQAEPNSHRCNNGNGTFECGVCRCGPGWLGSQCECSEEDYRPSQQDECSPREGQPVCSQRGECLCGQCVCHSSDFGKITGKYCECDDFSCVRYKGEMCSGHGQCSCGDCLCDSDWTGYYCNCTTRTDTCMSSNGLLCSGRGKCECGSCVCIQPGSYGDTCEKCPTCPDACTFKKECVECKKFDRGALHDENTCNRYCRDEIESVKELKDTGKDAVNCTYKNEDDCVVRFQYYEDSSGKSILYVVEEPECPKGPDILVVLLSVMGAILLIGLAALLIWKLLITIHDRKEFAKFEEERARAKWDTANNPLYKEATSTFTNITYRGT
Procedure: (§1) Adherent cells were brought into suspension using PBS supplemented with 10 mM ethylenediaminetetraacetic acid (EDTA). The cells were washed with PBS, resuspended in PBS supplemented with 1% BSA, and incubated for 15 minutes at 4° C. The cells were labelled with 50 μl of Fab-phage culture supernatant, or 500 nM Fab, or IgG for 30 minutes at 4° C., then washed with PBS and resuspended in PBS supplemented with 1% BSA. Next, the cells were labelled with anti-Fab (for Fab-phage), or anti-Flag (for Fabs) or anti-Fc (for IgGs) conjugated Alexa-488 secondary Ab according to manufacturer's instructions. Data were collected using a CytoFLEX-S flow-cytometer using a 488-nm laser with 530/25 nm filter settings. The cells were analyzed in PBS, and all acquired live events were greater than 10,000 cells per sample. Quantitation analysis was carried out using FlowJo v10.2 Software. For Ab cellular titration analysis, the Abs were added to antigen positive cells in duplicate samples from a range of 500 pM to 1 μM. The mean fluorescence signal values were subtracted from the control antigen negative cells signals, and EC50 determined using Graph-pad Prism, where x is the Fab concentration: […]

[2] = target: T2, integrin αvβ8 expressed on CHO cells (UniProt P06756 31-1048; P26012 43-769, limits assumed); test: flow cytometry titration on AvB8 CHO cells
T2 construct: whole, on cells
T2 sequence (P06756 31-1048 limits assumed, chain 1 of 2): as the sequence (P06756 31-1048 limits assumed, chain 1 of 2) above
T2 sequence (P26012 43-769 limits assumed, chain 2 of 2): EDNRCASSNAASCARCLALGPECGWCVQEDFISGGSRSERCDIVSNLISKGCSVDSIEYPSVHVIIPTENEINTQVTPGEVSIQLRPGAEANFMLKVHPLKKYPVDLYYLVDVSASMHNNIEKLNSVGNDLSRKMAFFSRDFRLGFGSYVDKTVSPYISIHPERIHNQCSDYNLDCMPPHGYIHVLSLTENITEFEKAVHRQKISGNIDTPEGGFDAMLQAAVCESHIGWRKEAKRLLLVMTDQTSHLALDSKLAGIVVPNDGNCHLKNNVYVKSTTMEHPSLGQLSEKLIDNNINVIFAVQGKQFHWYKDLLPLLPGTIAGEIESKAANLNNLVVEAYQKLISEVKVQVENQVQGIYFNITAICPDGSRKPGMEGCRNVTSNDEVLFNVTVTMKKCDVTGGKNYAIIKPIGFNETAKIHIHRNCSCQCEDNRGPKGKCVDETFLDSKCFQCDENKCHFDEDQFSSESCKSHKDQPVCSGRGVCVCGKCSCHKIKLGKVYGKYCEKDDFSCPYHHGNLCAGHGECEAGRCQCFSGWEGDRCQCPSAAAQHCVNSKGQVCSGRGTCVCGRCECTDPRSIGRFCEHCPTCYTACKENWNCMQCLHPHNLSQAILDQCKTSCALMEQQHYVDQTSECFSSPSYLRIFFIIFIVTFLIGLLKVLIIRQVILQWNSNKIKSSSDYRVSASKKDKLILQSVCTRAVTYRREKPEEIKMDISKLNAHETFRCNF
Procedure: as §1

[3] = target: T3, integrin αvβ6 expressed on CHO cells (UniProt P06756 31-1048; P18564 22-788, limits assumed); test: cell-based or functional assay
T3 sequence (P06756 31-1048 limits assumed, chain 1 of 2): as the sequence (P06756 31-1048 limits assumed, chain 1 of 2) above
T3 sequence (P18564 22-788 limits assumed, chain 2 of 2): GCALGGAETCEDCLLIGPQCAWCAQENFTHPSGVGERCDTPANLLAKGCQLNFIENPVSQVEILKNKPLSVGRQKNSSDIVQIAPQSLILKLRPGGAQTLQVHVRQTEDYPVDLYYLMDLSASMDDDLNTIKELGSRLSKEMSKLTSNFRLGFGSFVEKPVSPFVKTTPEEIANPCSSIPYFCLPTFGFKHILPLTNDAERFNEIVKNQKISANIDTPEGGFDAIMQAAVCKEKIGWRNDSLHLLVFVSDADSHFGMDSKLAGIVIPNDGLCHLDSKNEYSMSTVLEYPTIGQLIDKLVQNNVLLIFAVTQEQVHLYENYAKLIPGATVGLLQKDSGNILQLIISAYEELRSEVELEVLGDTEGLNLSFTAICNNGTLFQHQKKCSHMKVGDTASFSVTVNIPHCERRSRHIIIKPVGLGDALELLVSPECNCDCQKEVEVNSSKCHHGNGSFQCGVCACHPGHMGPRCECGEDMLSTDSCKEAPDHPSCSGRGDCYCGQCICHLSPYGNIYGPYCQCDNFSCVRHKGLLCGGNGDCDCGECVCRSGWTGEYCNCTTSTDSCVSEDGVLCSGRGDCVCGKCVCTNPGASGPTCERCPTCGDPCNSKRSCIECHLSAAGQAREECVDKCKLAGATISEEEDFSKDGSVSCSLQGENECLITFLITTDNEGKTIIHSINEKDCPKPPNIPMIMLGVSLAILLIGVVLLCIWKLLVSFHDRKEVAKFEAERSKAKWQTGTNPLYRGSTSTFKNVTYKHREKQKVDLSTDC

[4] = target: T4, integrin αvβ5 expressed on CHO cells (UniProt P06756 31-1048; P18084 24-799, limits assumed); test: cell-based or functional assay
T4 sequence (P06756 31-1048 limits assumed, chain 1 of 2): as the sequence (P06756 31-1048 limits assumed, chain 1 of 2) above
T4 sequence (P18084 24-799 limits assumed, chain 2 of 2): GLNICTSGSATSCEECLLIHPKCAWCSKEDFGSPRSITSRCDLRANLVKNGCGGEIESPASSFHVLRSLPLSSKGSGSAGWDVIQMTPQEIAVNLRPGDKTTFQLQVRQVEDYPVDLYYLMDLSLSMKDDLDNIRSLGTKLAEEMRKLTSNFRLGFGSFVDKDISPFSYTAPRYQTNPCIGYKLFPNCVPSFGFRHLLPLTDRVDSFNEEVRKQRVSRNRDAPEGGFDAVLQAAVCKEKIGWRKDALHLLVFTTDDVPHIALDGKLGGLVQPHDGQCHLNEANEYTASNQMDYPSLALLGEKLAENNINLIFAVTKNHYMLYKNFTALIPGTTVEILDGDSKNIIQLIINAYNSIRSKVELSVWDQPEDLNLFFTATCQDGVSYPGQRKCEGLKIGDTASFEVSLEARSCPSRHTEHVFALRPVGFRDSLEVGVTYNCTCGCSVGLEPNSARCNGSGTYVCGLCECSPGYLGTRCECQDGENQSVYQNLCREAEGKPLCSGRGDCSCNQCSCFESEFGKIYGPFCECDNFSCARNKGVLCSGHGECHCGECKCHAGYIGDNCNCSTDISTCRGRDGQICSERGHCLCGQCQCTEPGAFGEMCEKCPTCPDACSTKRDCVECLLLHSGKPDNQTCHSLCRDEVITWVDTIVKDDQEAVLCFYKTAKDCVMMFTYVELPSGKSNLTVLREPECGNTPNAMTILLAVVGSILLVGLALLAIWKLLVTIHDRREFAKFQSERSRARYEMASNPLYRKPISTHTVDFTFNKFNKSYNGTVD

[5] = target: T2, integrin αvβ8 expressed on CHO cells; test: cell-based or functional assay
[6] = target: T1, integrin αvβ3 expressed on CHO cells; test: cell-based or functional assay
[7] = target: T5, integrin αvβ1 expressed on CHO cells (UniProt P06756 31-1048; P05556 21-798, limits assumed); test: cell-based or functional assay
T5 sequence (P06756 31-1048 limits assumed, chain 1 of 2): as the sequence (P06756 31-1048 limits assumed, chain 1 of 2) above
T5 sequence (P05556 21-798 limits assumed, chain 2 of 2): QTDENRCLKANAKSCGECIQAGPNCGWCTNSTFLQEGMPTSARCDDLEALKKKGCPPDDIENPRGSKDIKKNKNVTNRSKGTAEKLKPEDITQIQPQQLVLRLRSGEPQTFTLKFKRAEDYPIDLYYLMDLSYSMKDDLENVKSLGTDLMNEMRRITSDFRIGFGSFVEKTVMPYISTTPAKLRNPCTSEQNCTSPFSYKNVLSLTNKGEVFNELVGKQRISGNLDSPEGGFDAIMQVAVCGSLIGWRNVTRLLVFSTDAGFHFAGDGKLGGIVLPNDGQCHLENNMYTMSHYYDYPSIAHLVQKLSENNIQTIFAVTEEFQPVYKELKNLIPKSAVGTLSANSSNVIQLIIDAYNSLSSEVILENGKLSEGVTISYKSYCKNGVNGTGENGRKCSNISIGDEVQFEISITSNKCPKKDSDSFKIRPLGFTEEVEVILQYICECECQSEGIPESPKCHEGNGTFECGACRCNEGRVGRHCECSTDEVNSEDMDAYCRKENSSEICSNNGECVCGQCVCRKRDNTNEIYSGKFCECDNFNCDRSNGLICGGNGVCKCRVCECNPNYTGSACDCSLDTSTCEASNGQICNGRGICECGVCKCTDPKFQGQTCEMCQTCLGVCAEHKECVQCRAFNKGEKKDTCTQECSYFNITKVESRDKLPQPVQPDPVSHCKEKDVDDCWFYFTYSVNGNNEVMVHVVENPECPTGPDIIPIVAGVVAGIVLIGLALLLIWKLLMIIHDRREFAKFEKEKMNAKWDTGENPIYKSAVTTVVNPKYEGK

[8] = target: T3, integrin αvβ6 expressed on CHO cells; test: flow cytometry titration on AvB6 CHO cells
Procedure: as §1

[9] = target: T5, integrin αvβ1 expressed on CHO cells; test: flow cytometry titration on AvB1 CHO cells
Procedure: as §1

[10] = target: T4, integrin αvβ5 expressed on CHO cells; test: flow cytometry titration on AvB5 CHO cells
Procedure: as §1

[11] = target: T1, integrin αvβ3 expressed on CHO cells; test: cell-based or functional assay; remark: listed apart in the source
[12] = target: T5, integrin αvβ1 expressed on CHO cells; test: cell-based or functional assay; remark: listed apart in the source
[13] = target: T3, integrin αvβ6 expressed on CHO cells; test: flow cytometry titration on integrin-expressing CHO cells
Procedure: as §1

[14] = target: T4, integrin αvβ5 expressed on CHO cells; test: as above
Procedure: as §1

[15] = target: T2, integrin αvβ8 expressed on CHO cells; test: as above
Procedure: as §1

[16] = target: T1, integrin αvβ3 expressed on CHO cells; test: as above
Procedure: as §1

[17] = target: T5, integrin αvβ1 expressed on CHO cells; test: as above
Procedure: as §1

[18] = target: T5, integrin αvβ1 expressed on CHO cells; test: cell-based or functional assay; remark: listed apart in the source
[19] = target: T6, recombinant mouse integrin-αvβ1 (mouse, UniProt P43406 31-988; P09055 21-728, limits assumed); test: IgG titration on recombinant mouse integrin αvβ1, one site-total fit; assay format not stated
T6 construct: also called Recombinant Mouse Integrins

[20] = target: T7, recombinant human integrin-αvβ1 (human, UniProt P06756 31-992; P05556 21-728, limits assumed); test: IgG titration on recombinant human integrin αvβ1, one site-total fit; assay format not stated; set-up: Bmax: unit not given here
T7 construct: also called Recombinant Human Integrins

[21] = target: T4, integrin αvβ5 expressed on CHO cells; test: cell-based or functional assay; remark: listed apart in the source
[22] = target: T2, integrin αvβ8 expressed on CHO cells; test: cell-based or functional assay; remark: listed apart in the source

EC50 [1]: 15.9 nM
EC50 [2]: 6.4 nM
IC50, inhibition of CHO cell adhesion to LAP-TGFβ [3]: 6.1 nM
IC50, inhibition of CHO cell adhesion to LAP-TGFβ [4]: 4.1 nM
IC50, inhibition of CHO cell adhesion to LAP-TGFβ [5]: 2.5 nM
IC50, inhibition of CHO cell adhesion to LAP-TGFβ [6]: 7.5 nM
IC50, inhibition of CHO cell adhesion to LAP-TGFβ [7]: 3.2 nM
EC50 [8]: 2.5 nM
EC50 [9]: 2.4 nM
EC50 [10]: 1.2 nM
B1: Bi-IgG 11867/10392 (bispecific antibody)
heavy chain 10392, knob: EVQLVESGGGLVQPGGSLRLSCAASGFNIYYSSIHWVRQAPGKGLEWVASISSSSGSTSYADSVKGRFTISADTSKNTAYLQMNSLRAEDTAVYYCARSYYGGGYPYALDYWGQGTLVTVSSASTKGPSVFPLAPSSKSTSGGTAALGCLVKDYFPEPVTVSWNSGALTSGVHTFPAVLQSSGLYSLSSVVTVPSSSLGTQTYICNVNHKPSNTKVDKKVEPKSCDKTHTCPPCPAPELLGGPSVFLFPPKPKDTLMISRTPEVTCVVVDVSHEDPEVKFNWYVDGVEVHNAKTKPREEQYNSTYRVVSVLTVLHQDWLNGKEYKCKVSNKALPAPIEKTISKAKGQPREPMVFDLPPSREEMTKNQVSLWCMVKGFYPSDIAVEWESNGQPENNYKTTPPVLDSDGSFFLYSKLTVDKSRWQQGNVFSCSVMHEALHNHYTQKSLSLSPGK
heavy chain 11867, hole: EVQLVESGGGLVQPGGSLRLSCAASGFDFDSYAIHWVRQAPGKGLEWVAYFYPGHDYSTYADSVKGRFTISADTSKNTAYLQMNSLRAEDTAVYYCARPSPYFSWHQAMDYWGQGTLVTVSSASTKGPSVFPLAPSSKSTSGGTAALGCLVKDYFPEPVTVSWNSGALTSGVHTFPAVLQSSGLYSLSSVVTVPSSSLGTQTYICNVNHKPSNTKVDKKVEPKSCDKTHTCPPCPAPELLGGPSVFLFPPKPKDTLMISRTPEVTCVVVDVSHEDPEVKFNWYVDGVEVHNAKTKPREEQYNSTYRVVSVLTVLHQDWLNGKEYKCKVSNKALPAPIEKTISKAKGQPREPQVYTLPPIRELMTSNQVSLSCAVKGFYPSDIAVEWESNGQPENNYKTTPPVLDSDGSFFLVSKLTVDKSRWQQGNVFSCSVMHEALHNHYTQKSLSLSPGK
light chain 11867: DIQMTQSPSSLSASVGDRVTITCRASQSVSSAVAWYQQKPGKAPKLLIYSASSLYSGVPSRFSGSRSGTDFTLTISSLQPEDFATYYCQQATGSEVTFGQGTKVEIKRTVAAPSVFIFPPSDEQLKSGTASVVCLLNNFYPREAKVQWKVDNALQSGNSQESVTEQDSKDSTYSLSSTLTLSKADYEKHKVYACEVTHQGLSSPVTKSFNRGEC

EC50 [1]: 9.9 nM
IC50, inhibition of CHO cell adhesion to LAP-TGFβ [11]: 45 nM
IC50, inhibition of CHO cell adhesion to LAP-TGFβ [12]: < 1 nM
EC50 [13]: 3.26 nM
EC50 [14]: 3.4 nM
EC50 [15]: 11.4 nM
EC50 [16]: 14.8 nM
EC50 [17]: 2.72 nM
adhesion of integrin-αvβ1 CHO cells to LAP-TGFβ, normalised confluence, number over the bar, untreated = 100 [18]: 61.2%
EC50 [2]: 11.6 nM
IC50, inhibition of CHO cell adhesion to LAP-TGFβ [3]: 1.4 nM
IC50, inhibition of CHO cell adhesion to LAP-TGFβ [4]: 0.7 nM
IC50, inhibition of CHO cell adhesion to LAP-TGFβ [5]: 1.3 nM
IC50, inhibition of CHO cell adhesion to LAP-TGFβ [6]: 1.2 nM
IC50, inhibition of CHO cell adhesion to LAP-TGFβ [7]: 5 nM
Bmax [19]: 0.412
Kd [19]: 0.421 nM
EC50 [8]: 3.7 nM
EC50 [9]: 3 nM
Bmax [20]: 0.412
Kd [20]: 0.421 nM
EC50 [10]: 1.3 nM
B2: IgG clone 10392, hG1/hk (pSCSTa-hG1 (10392) heavy chain, pSCSTa-hK (10392) light chain) (antibody, V domains shown)
VH: EVQLVESGGGLVQPGGSLRLSCAASGFNIYYSSIHWVRQAPGKGLEWVASISSSSGSTSTYADSVKGRFTISADTSKNTAYLQMNSLRAEDTAVYYCARSYYGGGYPYALDYWGQGTLVTVSS
VL: DIQMTQSPSSLSASVGDRVTITCRASQSVSSAVAWYQQKPGKAPKLLIYSASSLYSGVPSRFSGSRSGTDFTLTISSLQPEDFATYYCQQYFGGLITFGQGTKVEIKR
notes: Full-length human IgG1/kappa made in Expi293 cells

Bmax [19]: 1.09
Kd [19]: 0.244 nM
Bmax [20]: 1.09
Kd [20]: 0.244 nM
B3: 10404 hG1 LALA PG/hk (antibody, V domains shown)
VH: EVQLVESGGGLVQPGGSLRLSCAASGFNLYSSSIHWVRQAPGKGLEWVAYIYPSYGYTSTYADSVKGRFTISADTSKNTAYLQMNSLRAEDTAVYYCARPAPYYSWYPAMDYWGQGTLVTVSS
VL: B2 VL with Y91A, F92S, G94S, L95P, I96F
notes: not shown: human IgG1 constant region with 'LALA PG' changes

Bmax [19]: 0.555
Kd [19]: 0.411 nM
Bmax [20]: 0.555
Kd [20]: 0.411 nM
B4: 10392 hG1 LALA PG/hk (antibody, human IgG1, V domains shown)
VH: B2 VH
VL: B2 VL
notes: as for B3

IC50, inhibition of CHO cell adhesion to LAP-TGFβ [21]: 3.64 nM
IC50, inhibition of CHO cell adhesion to LAP-TGFβ [22]: < 1 nM
IC50, inhibition of CHO cell adhesion to LAP-TGFβ [11]: 23.8 nM
IC50, inhibition of CHO cell adhesion to LAP-TGFβ [12]: 13.2 nM
EC50 [13]: 2.96 nM
EC50 [14]: 2.45 nM
EC50 [15]: 14.3 nM
EC50 [16]: 13.1 nM
EC50 [17]: 2.43 nM
adhesion of integrin-αvβ1 CHO cells to LAP-TGFβ, normalised confluence, number over the bar, untreated = 100 [18]: 46.2%
Bmax [19]: 1.09
Bmax [20]: 1.09
Kd [20]: 0.271 nM
B5: IgG clone 10404, hG1/hk (pSCSTa-hG1 (10404) heavy chain, pSCSTa-hK (10404) light chain) (antibody, V domains shown)
VH: B3 VH
VL: B2 VL with Y91A, F92S, G94S, L95P, I96F
notes: as for B2

Bmax [19]: 0.782
Kd [19]: 0.358 nM
Bmax [20]: 0.782
Kd [20]: 0.358 nM
B6: 10404 hG4/hk (antibody, V domains shown)
VH: B3 VH
VL: B2 VL with Y91A, F92S, G94S, L95P, I96F
notes: the IgG4 constant region used is not specified; not shown: human IgG4 constant region ('hG4')

Bmax [19]: 0.85
Kd [19]: 0.842 nM
Bmax [20]: 0.85
Kd [20]: 0.842 nM
B7: 10392 hG4/hk (antibody, human IgG4, V domains shown)
VH: B2 VH
VL: B2 VL
notes: not shown: human IgG4 constant region ('hG4')
